Measurements from US20220025022A1.

T1: CFA/I fimbrial protein (with adhesin subunit CfaE) on ETEC strain H10407 (enterotoxigenic Escherichia coli (ETEC)) (UniProt P25734)
T1 sequence (looked up): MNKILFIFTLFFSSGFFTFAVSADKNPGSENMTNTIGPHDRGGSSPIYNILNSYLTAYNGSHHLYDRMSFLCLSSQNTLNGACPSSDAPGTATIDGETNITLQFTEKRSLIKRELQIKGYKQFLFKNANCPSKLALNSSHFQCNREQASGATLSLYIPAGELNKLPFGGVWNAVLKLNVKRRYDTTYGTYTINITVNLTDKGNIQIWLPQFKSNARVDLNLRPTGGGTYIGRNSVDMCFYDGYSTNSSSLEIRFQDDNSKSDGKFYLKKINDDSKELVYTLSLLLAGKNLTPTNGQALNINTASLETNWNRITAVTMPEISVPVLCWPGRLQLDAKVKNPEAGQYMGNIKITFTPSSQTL


Columns and labels:
[1] = target: T1, CFA/I fimbrial protein (with adhesin subunit CfaE) on ETEC strain H10407 (enterotoxigenic Escherichia coli (ETEC)); test: cell-based or functional assay
[2] = target: CS4 on ETEC strain (enterotoxigenic Escherichia coli (ETEC)); test: cell-based or functional assay
[3] = target: CS19 on ETEC strain #204648 (enterotoxigenic Escherichia coli (ETEC)); test: cell-based or functional assay
[4] = target: CS2 on ETEC strain #201546 (enterotoxigenic Escherichia coli (ETEC)); test: cell-based or functional assay
[5] = target: CS21 on ETEC strain #100171 (enterotoxigenic Escherichia coli (ETEC)); test: cell-based or functional assay
[6] = target: CS1 on ETEC strain #200145 (enterotoxigenic Escherichia coli (ETEC)); test: cell-based or functional assay
[7] = target: CS6 on ETEC strain #100001 (enterotoxigenic Escherichia coli (ETEC)); test: cell-based or functional assay
[8] = target: CS5 on ETEC strain #204348 (enterotoxigenic Escherichia coli (ETEC)); test: cell-based or functional assay
[9] = target: CS14 on ETEC strain #400599 (enterotoxigenic Escherichia coli (ETEC)); test: cell-based or functional assay
[10] = target: CS17 on ETEC strain (enterotoxigenic Escherichia coli (ETEC)); test: cell-based or functional assay
[11] = target: CS3 on ETEC strain #100483 (enterotoxigenic Escherichia coli (ETEC)); test: cell-based or functional assay
[12] = target: MBP-CfaE-N (recombinant N-terminal adhesin domain of CfaE fused to an MBP tag) (enterotoxigenic Escherichia coli (ETEC)) (UniProt P25734); test: SPR (Biacore T200), CfaE on CM5 chip, VHH injected, 25 C, 1:1 model

Row | Binder | Caco2 adhesion assay: concentration at which adhesion was inhibited [1] [µM] | MRHA IC100 [1] | MRHA IC100 [2] [µg/mL] | MRHA IC100 [3] [µg/mL] | MRHA IC100 [4] [µg/mL] | MRHA IC100 [5] [µg/mL] | MRHA IC100 [6] [µg/mL] | MRHA IC100 [7] [µg/mL] | MRHA IC100 [8] [µg/mL] | MRHA IC100 [9] [µg/mL] | MRHA IC100 [10] [µg/mL] | MRHA IC100 [11] [µg/mL] | Kd [12] [nM] | koff [12] [s⁻¹] | kon [12] [M⁻¹ s⁻¹]
1 | dimeric 2R215 (VHH) QVQLQESGGGLVQAGGSLRLSCAASGNIFQDAEMGWYRQAPGKEREFVATIAYGGNTNYADSVKGRFTISRDNAKNTVYLQMNSLKPEDTAVYYCAVYTGVYYDRTTGGYVAFEYWGQGTQVTVSSGGGGSGGGGSGGGGSGGGGSGGGGSGGGGSQVQLQESGGGLVQAGGSLRLSCAASGNIFQDAEMGWYRQAPGKEREFVATIAYGGNTNYADSVKGRFTISRDNAKNTVYLQMNSLKPEDTAVYYCAVYTGVYYDRTTGGYVAFEYWGQGTQVTVSSHHHHHH | 1.8 | 1.25 µM | – | – | – | – | – | – | – | – | – | – | – | – | –
2 | trimeric 2R215 (VHH) QVQLQESGGGLVQAGGSLRLSCAASGNIFQDAEMGWYRQAPGKEREFVATIAYGGNTNYADSVKGRFTISRDNAKNTVYLQMNSLKPEDTAVYYCAVYTGVYYDRTTGGYVAFEYWGQGTQVTVSSGGGGSGGGGSGGGGSQVQLQESGGGLVQAGGSLRLSCAASGNIFQDAEMGWYRQAPGKEREFVATIAYGGNTNYADSVKGRFTISRDNAKNTVYLQMNSLKPEDTAVYYCAVYTGVYYDRTTGGYVAFEYWGQGTQVTVSSGGGGSGGGGSGGGGSQVQLQESGGGLVQAGGSLRLSCAASGNIFQDAEMGWYRQAPGKEREFVATIAYGGNTNYADSVKGRFTISRDNAKNTVYLQMNSLKPEDTAVYYCAVYTGVYYDRTTGGYVAFEYWGQGTQVTVSSHHHHHH | 0.567 | 2.5 µM | – | – | – | – | – | – | – | – | – | – | – | – | –
3 | VHH antibody 1H4 (monomeric) (VHH) VHH: EVQLVESGGGLVQAGGSLRLSCAASSRTFNHYNIGWFRQAPGKEREFAAAITWNGRSTLYADSVKGRFTISRDNAKNTVYLQMNSLKPEDTAVYYCATLTTWEHKWEYNSQGQGTQVTVSS | – | 200 µg/mL | 25 | 100 | 100 | 25 | 100 | 25 | 3.12 | 100 | 6.25 | 100 | 18.3 | 0.000513 | 28100
